Values of other authors in PMC6802610.

Columns and labels:
GDI (Homo sapiens) = GDI (Homo sapiens) (UniProt P31150)
Rab1 (Homo sapiens) = Rab1 (Homo sapiens) (UniProt P62820)
Rab1 (Homo sapiens), sequence (P62820 2-205): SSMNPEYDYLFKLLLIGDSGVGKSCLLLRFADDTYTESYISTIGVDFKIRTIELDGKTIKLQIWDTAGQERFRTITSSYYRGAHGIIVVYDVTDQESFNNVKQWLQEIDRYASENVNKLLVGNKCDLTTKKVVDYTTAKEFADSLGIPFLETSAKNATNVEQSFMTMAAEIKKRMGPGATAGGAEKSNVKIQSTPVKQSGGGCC

SidM/DrrA, sequence (Q5ZSQ3 whole entry): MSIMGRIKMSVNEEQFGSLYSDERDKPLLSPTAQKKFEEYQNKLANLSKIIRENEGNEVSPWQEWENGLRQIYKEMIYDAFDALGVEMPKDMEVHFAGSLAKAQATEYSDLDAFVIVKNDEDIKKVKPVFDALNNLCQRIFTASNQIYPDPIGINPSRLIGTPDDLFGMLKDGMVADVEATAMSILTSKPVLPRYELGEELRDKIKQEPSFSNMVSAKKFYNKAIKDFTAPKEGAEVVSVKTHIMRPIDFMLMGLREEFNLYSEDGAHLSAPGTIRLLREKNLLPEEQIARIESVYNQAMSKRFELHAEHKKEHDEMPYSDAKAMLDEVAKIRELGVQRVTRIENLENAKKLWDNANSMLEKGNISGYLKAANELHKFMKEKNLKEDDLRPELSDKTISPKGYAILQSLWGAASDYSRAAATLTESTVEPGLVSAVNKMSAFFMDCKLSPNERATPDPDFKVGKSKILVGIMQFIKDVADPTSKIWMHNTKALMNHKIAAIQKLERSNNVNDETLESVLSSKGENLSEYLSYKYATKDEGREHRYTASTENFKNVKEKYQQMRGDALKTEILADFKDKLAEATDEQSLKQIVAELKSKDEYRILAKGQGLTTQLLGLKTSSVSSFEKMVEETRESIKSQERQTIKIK
GDI (Homo sapiens), sequence (P31150 whole entry): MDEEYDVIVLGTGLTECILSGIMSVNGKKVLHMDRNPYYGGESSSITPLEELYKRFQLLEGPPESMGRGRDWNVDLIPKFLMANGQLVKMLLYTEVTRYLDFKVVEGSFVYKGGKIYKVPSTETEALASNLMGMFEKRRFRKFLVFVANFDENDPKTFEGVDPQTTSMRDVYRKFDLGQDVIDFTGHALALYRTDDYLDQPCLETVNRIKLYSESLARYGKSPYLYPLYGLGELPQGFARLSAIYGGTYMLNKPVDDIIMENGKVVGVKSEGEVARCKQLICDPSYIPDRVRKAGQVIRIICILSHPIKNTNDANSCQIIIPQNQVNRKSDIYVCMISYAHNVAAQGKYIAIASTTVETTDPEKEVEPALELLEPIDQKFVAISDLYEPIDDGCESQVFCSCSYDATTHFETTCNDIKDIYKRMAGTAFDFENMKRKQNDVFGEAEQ
Rab1, sequence (P62820 2-205): as the sequence (P62820 2-205) above

Row | Substance | Kd (GDI (Homo sapiens)) [nM] | Kd (Rab1 (Homo sapiens)) [nM]
1 | Rab1 (from UniProt P62820) | 20 | 
2 | SidM/DrrA (from UniProt Q5ZSQ3) |  | 84
